The values below come from PMC7112944 (Science Advances, 2020).

The Kd is the concentration at which binding is half-saturated. As a reminder, the stoichiometry N is a count of units in the complex or per binding partner.

Test [1] concerns the target T1, N_(460–525) (measles virus, UniProt P04851 460-525).
T1 sequence (looked up): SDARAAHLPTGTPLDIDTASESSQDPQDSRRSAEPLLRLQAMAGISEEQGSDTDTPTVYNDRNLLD
The test is described as follows: ITC + NMR titration.

Test [2] addresses T1, N_(460–525). The test is described as follows: ITC. On the technique in general: In ITC the heat of successive injections is recorded.

B1: Phosphoprotein XD domain (PXD), P_(457–507) (domain or fragment, measles virus, UniProt P03422 457-507, looked up)
chain: GPASRSVIRSIIKSSRLEEDRKRYLMTLLDDIKGANDLAKFHQMLMKIIMK
Regarding B1, in test [1], the Kd was approximately 5 µM. For the same molecule, in test [2], the dH was -10.46 ± 0.0465 kcal/mol and the “stoichiometry N” value amounted to 0.927 sites.
